What was measured:
[1] = test system: RAJI cells; test: JNG assay, co-culture with RAJI cells; assay type: cell-based; conditions: JNG cells expressing construct, co-culture with Raji
How it was run: (§1)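 Read-out is NFAT-driven GFP measured by flow cytometry after ~4–18 h co-culture of SAR-expressing JNG cells with target cells (E:T about 1:2). SARs were introduced by lentiviral spinfection and selected with puromycin or blasticidin when possible; scores (+/- to 5+ ≈ 5–50% GFP+) are relative to parental JNG cells.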

[2] = test system: L363 cells; test: JNG assay, co-culture with L363 cells; assay type: cell-based; conditions: co-culture with L363
How it was run: as §1

Molecule	NFAT-GFP ASSAY: Raji [1]	NFAT-GFP ASSAY: L363 [2]
22029 (protein) MALPVTALLLPLALLLHAARPQLQLQESGPGLVKPSETLSLTCTVSGDSISSGDYYWGWIRQPPGKGLEWIGHIYYSGVTYYNPSLKSRVTISVDTSRNQFSLKLSSVTAADTAVYYCTREDSSNWRSRGQGTLVTVSSLEDKTHTCPPCPAPIKTDVITMDPKDNCSKDANDTLLLQLTNTSAYYMYLLLLLKSVVYFAIITCCLLRRTAFCCNGEKSRAKRSGSGATNFSLLKQAGDVEENPGPTSMDWIWRILFLVGAATGAHSFEVQLVESGGGVVQPGRSLRLSCAASGFSFSGYGMHWVRQAPGKGLEWVAYISYDGSNKYYADSVKGRFTISRDNSKNTLYLQMNSLRAEDTAVYYCAKDPAWGLRLGESSSYDFDIWGQGTMVTVSSTRIQNPDPAVYQLRDSKSSDKSVCLFTDFDSQTNVSQSKDSDVYITDKCVLDMRSMDFKSNSAVAWSNKSDFACANAFNNSIIPEDTFFPSPESSCDVKLVEKSFETDTNLNFQNLSVIGFRILLLKVAGFNLLMTLRLWSSRAKRSGSGVKQTLNFDLLKLAGDVESNPGPSRGHMTEYKPTVRLATRDDVPRAVRTLAAAFADYPATRHTVDPDRHIERVTELQELFLTRVGLDIGKVWVADDGAAVAVWTTPESVEAGAVFAEIGPRMAELSGSRLAAQQQMEGLLAPHRPKEPAWFLATVGVSPDHQGKGLGSAVVLPGVEAAERAGVPAFLETSAPRNLPFYERLGFTVTADVEVPEGPRTWCMTRKPGA	+/- (refer to approximately 5%, 10%, 20%, 30%, 40% and 50% GFP positive cells)	+ (refer to approximately 5%, 10%, 20%, 30%, 40% and 50% GFP positive cells)
22083 (protein) MALPVTALLLPLALLLHAARPQLQLQESGPGLVKPSETLSLTCTVSGDSISSGDYYWGWIRQPPGKGLEWIGHIYYSGVTYYNPSLKSRVTISVDTSRNQFSLKLSSVTAADTAVYYCTREDSSNWRSRGQGTLVTVSSLESGGGGSFEEVQLLESGGGLVQPGGSLRLSCAASGFTFSSYAMSWVRQAPGKGLEWVSSISGSGDYIYYADSVKGRFTISRDISKNTLYLQMNSLRAEDTAVYYCAKEGTGANSSLADYRGQGTLVTVSSTRDKTHTCPPCPAIPEDTFFPSPESSCDVKLVEKSFETDTNLNFQNLSVIGFRILLLKVAGFNLLMTLRLWSS	+/- (refer to approximately 5%, 10%, 20%, 30%, 40% and 50% GFP positive cells)	+/- (refer to approximately 5%, 10%, 20%, 30%, 40% and 50% GFP positive cells)
22025 (protein) MALPVTALLLPLALLLHAARPQLQLQESGPGLVKPSETLSLTCTVSGDSISSGDYYWGWIRQPPGKGLEWIGHIYYSGVTYYNPSLKSRVTISVDTSRNQFSLKLSSVTAADTAVYYCTREDSSNWRSRGQGTLVTVSSLEDKTHTCPPCPAGRADCGFTSESYQQGVLSATILYEILLGKATLYAVLVSALVLMAMVKRKDSRGRAKRSGSGATNFSLLKQAGDVEENPGPTSMDWIWRILFLVGAATGAHSFEVQLLESGGGLIQPGGSLRLSCAASGFTFSSHAMTWVRQAPGKGLEWVSAISGSGDYTHYADSVKGRFTISRDNSKNTVYLQMNSLRAEDSAVYYCAKDEDGGSLLGHRGQGTLVTVSSTRDKTHTCPPCPAIPEDTFFPSPESSCDVKLVEKSFETDTNLNFQNLSVIGFRILLLKVAGFNLLMTLRLWSSRAKRSGSGVKQTLNFDLLKLAGDVESNPGPSRGHMTEYKPTVRLATRDDVPRAVRTLAAAFADYPATRHTVDPDRHIERVTELQELFLTRVGLDIGKVWVADDGAAVAVWTTPESVEAGAVFAEIGPRMAELSGSRLAAQQQMEGLLAPHRPKEPAWFLATVGVSPDHQGKGLGSAVVLPGVEAAERAGVPAFLETSAPRNLPFYERLGFTVTADVEVPEGPRTWCMTRKPGA	+/- (refer to approximately 5%, 10%, 20%, 30%, 40% and 50% GFP positive cells)	+ (refer to approximately 5%, 10%, 20%, 30%, 40% and 50% GFP positive cells)
22152 (protein) MALPVTALLLPLALLLHAARPEVQLLESGGGLVQPGGSLRLSCAASGFTFSSYAMSWVRQAPGKGLEWVSSISGSGDYIYYADSVKGRFTISRDISKNTLYLQMNSLRAEDTAVYYCAKEGTGANSSLADYRGQGTLVTVSSGTGGGGSGGGGSGGGGSEFSYVLTQPPSVSVAPGQTARITCGGNNIGGKSVHWYQQPPGQAPVVVVYDDSDRPSGIPERFSGSNSGNTATLTISRVEAGDEAVYYCQVWDSSSDHVVFGGGTKLTVLLEDLKNVFPPEVAVFEPSEAEISHTQKATLVCLATGFYPDHVELSWWVNGKEVHSGVCTDPQPLKEQPALNDSRYCLSSRLRVSATFWQNPRNHFRCQVQFYGLSENDEWTQDRAKPVTQIVSAEAWGRADCGFTSESYQQGVLSATILYEILLGKATLYAVLVSALVLMAMVKRKDSRGRAKRSGSGATNFSLLKQAGDVEENPGPTSMDWIWRILFLVGAATGAHSFEQLQLQESGPGLVKPSETLSLTCTVSGGSISSSSYFWGWIRQPPGKGLEWIGSIYYSGITYYNPSLKSRVTISVDTSKNQFSLKLSSVTAADTAVYYCARHDGAVAGLFDYWGQGTLVTVSSATRIQNPDPAVYQLRDSKSSDKSVCLFTDFDSQTNVSQSKDSDVYITDKCVLDMRSMDFKSNSAVAWSNKSDFACANAFNNSIIPEDTFFPSPESSCDVKLVEKSFETDTNLNFQNLSVIGFRILLLKVAGFNLLMTLRLWSSRAKRSGSGVKQTLNFDLLKLAGDVESNPGPSRGHMTEYKPTVRLATRDDVPRAVRTLAAAFADYPATRHTVDPDRHIERVTELQELFLTRVGLDIGKVWVADDGAAVAVWTTPESVEAGAVFAEIGPRMAELSGSRLAAQQQMEGLLAPHRPKEPAWFLATVGVSPDHQGKGLGSAVVLPGVEAAERAGVPAFLETSAPRNLPFYERLGFTVTADVEVPEGPRTWCMTRKPGA	–	2+ (refer to approximately 5%, 10%, 20%, 30%, 40% and 50% GFP positive cells)
22153 (protein) MALPVTALLLPLALLLHAARPACEVQLLESGGGLIQPGGSLRLSCAASGFTFSSHAMTWVRQAPGKGLEWVSAISGSGDYTHYADSVKGRFTISRDNSKNTVYLQMNSLRAEDSAVYYCAKDEDGGSLLGHRGQGTLVTVSSGTGGGGSGGGGSGGGGSEFSYVLTQPPSVSVAPGQTARITCGGNNIGGKSVHWYQQPPGQAPVVVVYDDSDRPSGIPERFSGSNSGNTATLTISRVEAGDEAVYYCQVWDSSSDHVVFGGGTKLTVLLEGQPKANPTVTLFPPSSEELQANKATLVCLISDFYPGAVTVAWKADGSPVKAGVETTKPSKQSNNKYAASSYLSLTPEQWKSHRSYSCQVTHEGSTVEKTVAPTECSPIKTDVITMDPKDNCSKDANDTLLLQLTNTSAYYMYLLLLLKSVVYFAIITCCLLRRTAFCCNGEKSRAKRSGSGATNFSLLKQAGDVEENPGPTSATMDWIWRILFLVGAATGAHSGPQVQLQESGGGLAQAGGSLRLSCAASGRTFSMGWFRQAPGKEREFVAAITYSGGSPYYASSVRGRFTISRDNAKNTVYLQMNSLKPEDTAVYYCAANPTYGSDWNAENWGQGTQVTVSSGSGGGGSGGGGSGGGGSFEQLQLQESGPGLVKPSETLSLTCTVSGGSISSSSYFWGWIRQPPGKGLEWIGSIYYSGITYYNPSLKSRVTISVDTSKNQFSLKLSSVTAADTAVYYCARHDGAVAGLFDYWGQGTLVTVSSATRASTKGPSVFPLAPSSKSTSGGTAALGCLVKDYFPEPVTVSWNSGALTSGVHTFPAVLQSSGLYSLSSVVTVPSSSLGTQTYICNVNHKPSNTKVDKRVEPKSCEVKTDSTDHVKPKETENTKQPSKSCHKPKAIVHTEKVNMMSLTVLGLRMLFAKTVAVNFLLTAKLFFLRAKRSGSGVKQTLNFDLLKLAGDVESNPGPSRGHMTEYKPTVRLATRDDVPRAVRTLAAAFADYPATRHTVDPDRHIERVTELQELFLTRVGLDIGKVWVADDGAAVAVWTTPESVEAGAVFAEIGPRMAELSGSRLAAQQQMEGLLAPHRPKEPAWFLATVGVSPDHQGKGLGSAVVLPGVEAAERAGVPAFLETSAPRNLPFYERLGFTVTADVEVPEGPRTWCMTRKPGA	–	2+ (refer to approximately 5%, 10%, 20%, 30%, 40% and 50% GFP positive cells)

— patent US20230212319A1, “NOVEL ANTIGEN BINDING DOMAINS AND SYNTHETIC ANTIGEN RECEPTORS INCORPORATING THE SAME” (University of Southern California, priority 2020, published 2023)
